Results reported in patent US10494415B2, “Insulin-like growth factor 2 (IGF2) binding agents” (Cancer Research Technology Limited, priority 2015, dated 2019).

Legend:
[1] = tested on: IGF2^1-67-induced hypoglycaemia; assay: IGF2-induced hypoglycaemia mouse model; format: in vivo; conditions: co-injected
Excerpt: All animal experiments were approved by the animal use ethical committee of Oxford University and fully complied with UK Home Office guidelines (PPL 30/2695). Wild-type C57BL/6J and 129S2 mice were used throughout. Mice were anaesthetised using a rising concentration of isoflurane in oxygenated air and maintained using 2% isoflurane with 2 L min^−1 oxygen. Blood glucose measurements were taken using an Advantage diabetic glucose meter (Roche Diagnostics, Burgess Hill, UK). In order to test the direct inhibition of IGF2-induced hypoglycaemia by Fc-domain 11^AB5, blood glucose levels were allowed to normalise for 30 min prior to taking a baseline blood glucose reading, then either 1 mg kg^−1 IGF2 only (R&D systems), […], Fc-domain 11^RHH, or Fc-domain 11^I1572A ([…]) was injected. Blood glucose measurements were taken every 10 min for the following hour. For the Fc-domain 11^AB5 mouse preloading experiment, 11.7 mg kg^−1 Fc-domain 11^AB5 or PBS, as negative control, was injected immediately after induction of anaesthesia, 30 mins later a baseline blood glucose reading was taken and 1 mg kg^−1 IGF2 ([…]) was injected, readings were then taken every 10 min for the following hour. For the mouse IGF2 preloading experiment, 1 mg kg^−1 IGF2 was injected immediately after induction of anaesthesia, 30 min later a baseline blood glucose reading was taken and either 11.7 mg kg^−1 Fc-domain 11^AB5 ([…]) or PBS was injected, readings were then taken every 10 min for the following hour.

[2] = tested on: IGF2 in human serum; assay: Neutral size fractionation of human serum before and after depletion with IGF2-TRAP beads, western blot
Experimental: FIG. 14 IGF2-TRAP modifies the molecular distribution of IGF2 in human serum. Normal (left) and NICTH (right) sera were fractionated in a gel filtration column at neutral pH, alongside a molecular weight calibration marker, before and after incubation and depletion with IGF2-TRAP-loaded protein G beads. Elution fractions were analysed by western blot.
Changes in the molecular distribution of circulating IGF2 upon IGF2-TRAP treatment were analysed by neutral size fractionation of human serum (FIG. 14). In adult human serum, western blots of the fractions reveal that IGF2 is mainly the mature lower molecular weight isoform, and is predominantly present in a ternary complex with IGFBP3 and the acid labile subunit (ALS) (˜150 kDa), and to a lesser extent in a binary complex with IGFBP3 (˜40 kDa), with free IGF2 below the limit of detection. […] Pull-downs confirmed that the depleted IGF2 specifically bound IGF2-TRAP. In a second experiment, serum from a patient with Non-Islet-Cell Tumour-associated Hypoglycaemia (NICTH) secondary to a GIST tumour was utilised.

[3] = tested on: SKNMC-IGF2^1-67 cells; assay: Growth/viability of IGF2-autocrine SKNMC cells in culture (MTS); format: cell-based, human
Excerpt: IGF2 sensitive autocrine cell line SKNMC-IGF2^67 was generated from the Ewing sarcoma cell line SKNMC by retroviral infection with constructs containing IRES-luciferase. Autocrine growth and signalling function of the SKNMC line, including inhibition by IGF2-TRAP, was confirmed in culture using an MTS reagent (Cell Titer 96 Aqueous One Solution cell proliferation assay, Promega). For xenografts, approximately 5×10^6 SKNMC-IGF2^67 cells harvested during the growth phase of sub-confluent cell cultures were then mixed with matrigel (50:50 v/v, 100 μl/mouse) and injected (sub-cutaneous) into CD-1® (Crl:NU-1 Foxn1nu) female mice, 24 hours after establishing ALZET® mini-pump placement delivering a single concentration 40 mg kg-1 per week either IGF2-TRAP or PBS vehicle control. Tumour growth was monitored with both caliper measurements and bioluminescence. The latter was performed with a Bruker Xtreme 2D optical system 15 minutes (10 second exposure) following luciferin injection (100 μl per 20 g body weight). Tumours were excised at 28 days or when size was >1000 mm3. Fixation in formalin, embedding in paraffin and Hematoxylin and Eosin (H&E) staining was done using standard protocols. Apoptotic area was quantified using automated image analysis of brightfield images in ImageJ, applying H AEC color deconvolution filter and automated thresholding. […]

[4] = tested on: SKNMC-IGF2^1-67 xenografts; assay: IGF2 dependent human cancer cell xenografts; format: in vivo, mouse; conditions: for Xenograft growth: CD-1 nude mice, 40 mg kg-1 per week by osmotic mini-pump
Excerpt: IGF2 sensitive autocrine cell line SKNMC-IGF2^67 was generated from the Ewing sarcoma cell line SKNMC by retroviral infection with constructs containing IRES-luciferase. Autocrine growth and signalling function of the SKNMC line, including inhibition by IGF2-TRAP, was confirmed in culture using an MTS reagent (Cell Titer 96 Aqueous One Solution cell proliferation assay, Promega). For xenografts, approximately 5×10^6 SKNMC-IGF2^67 cells harvested during the growth phase of sub-confluent cell cultures were then mixed with matrigel (50:50 v/v, 100 μl/mouse) and injected (sub-cutaneous) into CD-1® (Crl:NU-1 Foxn1nu) female mice, 24 hours after establishing ALZET® mini-pump placement delivering a single concentration 40 mg kg-1 per week either IGF2-TRAP or PBS vehicle control. Tumour growth was monitored with both caliper measurements and bioluminescence. The latter was performed with a Bruker Xtreme 2D optical system 15 minutes (10 second exposure) following luciferin injection (100 μl per 20 g body weight). Tumours were excised at 28 days or when size was >1000 mm3. Fixation in formalin, embedding in paraffin and Hematoxylin and Eosin (H&E) staining was done using standard protocols. Apoptotic area was quantified using automated image analysis of brightfield images in ImageJ, applying H AEC color deconvolution filter and automated thresholding. Serum was also collected at the time of culling.

Chain of IGF2 in human serum (P01344 25-91 limits assumed): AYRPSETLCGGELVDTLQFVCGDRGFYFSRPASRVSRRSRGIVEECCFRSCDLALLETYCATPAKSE

B1: Fc-domain 11^AB5-RHH: Fc-fusion of domain 11^AB5-RHH (IGF2-TRAP); IgG2 Fc form purified from CHO cells used for xenografts (protein)
chain: NEHDDCQVTNPSTGHLFDLSSLSGRAGFTAAYAKGWGVYMSICGENENCPPGVGACFGRTRISVGKANKRLRYVDQVLQLVYKDGSHCPSKHGLSYKSVISFVCRPEAGPTNRPMLISLDKQTCTLFFSWHTPLACEQAT
modifications: left off: a dimerising Fc or GST
notes: Fc-fusion of domain 11^AB5-RHH (IGF2-TRAP); IgG2 Fc form purified from CHO cells used for xenografts
IGF2-induced hypoglycaemia (blood glucose) ([1]; molar ratio 1:0.23): more efficient IGF2 antagonist than Fc-domain 11^AB5 | IGF2-induced hypoglycaemia (blood glucose) ([1]; molar ratio 1:0.23, listed as domain 11^AB5-RHH): significantly counteracted IGF2-induced hypoglycaemia | IGF2-induced hypoglycaemia (blood glucose) ([1]; molar ratio 1:0.5): abrogation | IGF2 distribution in serum after IGF2-TRAP depletion ([2]; NICTH patient serum): depleted both lower and higher molecular weight isoforms of IGF2 | IGF2 distribution in serum after IGF2-TRAP depletion ([2]; normal adult human serum): depleted IGF2 in the binary complex | Growth of SKNMC cells expressing constitutive IGF2^1-67 in culture ([3]; listed as Fc-domain 11AB5-RHH): inhibited | Growth of SKNMC cells expressing constitutive IGF2^1-67 in culture ([3]; listed as IGF2-TRAP): decreases the cell viability | Xenograft growth ([4]; listed as Fc-domain 11AB5-RHH): Reduced xenograft growth rates | Xenograft growth ([4]; listed as IGF2-TRAP): reduces IGF2 dependent xenograft growth | Total serum IGF1, Growth Hormone or IGFBP levels ([4]; Day 28): without alteration | Serum IGF2 ([4]; Day 28, listed as Fc-domain 11AB5-RHH): less evident | Serum IGF2 ([4]; Day 28, listed as IGF2-TRAP): reduced levels of serum IGF2
